In paper PMC3587138 (Nature, 2011):

B1: recombinant 6×His-tagged Hub1 (natural protein, S. cerevisiae)
chain: MIEVVVNDRLGKKVRVKCLAEDSVGDFKKVLSLQIGTQPNKIVLQKGGSVLKDHISLEDYEVHDQTNLELYYL
B2: N-terminal 65-amino-acid fragment of Snu66 (domain or fragment, S. cerevisiae, UniProt Q12420 1-65, looked up)
chain: MNKTENLSIEETNEIREKLGMKPIPVFQEKNTDHKESLSIEETNELRASLGLKLIPPQQNFNSSP

Key:
[1] = molecular target: T1, full-length Snu66 (recombinant) (S. cerevisiae, UniProt Q12420 1-587); test: ITC
T1 sequence (looked up): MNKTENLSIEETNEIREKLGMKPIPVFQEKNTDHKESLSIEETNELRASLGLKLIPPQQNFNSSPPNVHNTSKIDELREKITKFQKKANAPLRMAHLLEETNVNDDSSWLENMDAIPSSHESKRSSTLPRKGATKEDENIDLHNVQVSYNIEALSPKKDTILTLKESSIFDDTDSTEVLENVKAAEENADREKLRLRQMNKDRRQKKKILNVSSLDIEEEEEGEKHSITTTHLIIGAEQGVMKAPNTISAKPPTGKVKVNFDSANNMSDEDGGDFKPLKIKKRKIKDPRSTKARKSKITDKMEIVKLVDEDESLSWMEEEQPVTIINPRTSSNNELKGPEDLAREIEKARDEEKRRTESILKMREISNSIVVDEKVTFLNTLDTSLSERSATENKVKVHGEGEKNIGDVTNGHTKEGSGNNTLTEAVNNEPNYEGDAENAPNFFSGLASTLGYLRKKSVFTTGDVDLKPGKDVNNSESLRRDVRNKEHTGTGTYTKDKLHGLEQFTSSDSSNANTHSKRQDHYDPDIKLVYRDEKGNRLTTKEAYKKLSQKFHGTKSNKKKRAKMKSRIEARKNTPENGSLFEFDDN

[2] = molecular target: B1; test: NMR titration

| Binder | Kd [1] [nM] | binding result [2] |
| --- | --- | --- |
| B1 | 590 ± 70 |  |
| B2 |  | binds |
